Assay results from patent US20140087995A1 (published 2014).
Numbered stars: 1 amine (or outer) side, 2 acyl side, 3 side chain; on linkers, the order of the positions; unused ones are H or OH. Bridge positions count the residues as written; N and C are the ends. Side chains are listed from the residue outwards. Ends that are not written are not given here. * marks the point of attachment. C20 diacid = O=C(O)CCCCCCCCCCCCCCCCCCC(=O)*; γGlu = O=C(O)[C@H](CCC(=O)[*:2])N[*:1]; AEEA = NCCOCCOCC(=O)O

T1: human amylin receptor (amylin 3(a) receptor: human calcitonin receptor plus RAMP-3) (human, UniProt P30988 25-474; O60896 24-148)
T1 construct: whole, on cells; functional assay (II)a used the whole cells; also called hAmylin-R; hAmylinR
T1 sequence (looked up) 1: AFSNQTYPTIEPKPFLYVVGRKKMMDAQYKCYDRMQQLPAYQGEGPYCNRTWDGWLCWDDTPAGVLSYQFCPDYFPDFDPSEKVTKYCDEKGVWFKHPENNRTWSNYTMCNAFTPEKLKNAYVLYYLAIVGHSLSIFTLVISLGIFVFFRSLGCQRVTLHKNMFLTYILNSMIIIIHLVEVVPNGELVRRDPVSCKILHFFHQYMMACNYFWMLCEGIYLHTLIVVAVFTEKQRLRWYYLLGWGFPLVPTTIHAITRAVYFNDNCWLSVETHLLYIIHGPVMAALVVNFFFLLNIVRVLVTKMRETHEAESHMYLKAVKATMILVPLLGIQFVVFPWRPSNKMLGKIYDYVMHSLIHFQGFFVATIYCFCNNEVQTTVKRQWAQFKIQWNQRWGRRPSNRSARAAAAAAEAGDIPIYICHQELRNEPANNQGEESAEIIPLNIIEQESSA
T1 sequence (looked up) 2: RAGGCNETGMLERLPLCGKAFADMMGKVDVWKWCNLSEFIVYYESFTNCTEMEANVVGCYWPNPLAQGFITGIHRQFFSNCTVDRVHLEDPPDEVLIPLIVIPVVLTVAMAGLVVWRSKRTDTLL

T2: human calcitonin receptor (human, UniProt P30988 25-474)
T2 sequence (looked up): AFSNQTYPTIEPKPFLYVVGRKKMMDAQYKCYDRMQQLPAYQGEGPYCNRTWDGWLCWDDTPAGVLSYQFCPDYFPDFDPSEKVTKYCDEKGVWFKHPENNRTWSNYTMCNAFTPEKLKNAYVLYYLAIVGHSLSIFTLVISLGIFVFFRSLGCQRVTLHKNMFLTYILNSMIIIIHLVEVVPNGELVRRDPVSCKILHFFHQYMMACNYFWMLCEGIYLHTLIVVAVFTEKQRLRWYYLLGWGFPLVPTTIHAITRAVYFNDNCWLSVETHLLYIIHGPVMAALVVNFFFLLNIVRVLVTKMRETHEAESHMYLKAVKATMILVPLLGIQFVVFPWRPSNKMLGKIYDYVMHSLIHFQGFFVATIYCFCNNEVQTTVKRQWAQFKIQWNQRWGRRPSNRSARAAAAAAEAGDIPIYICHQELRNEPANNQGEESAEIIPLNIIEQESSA

B1: N^ε1-[2-[2-[2-[[(4S)-4-carboxy-4-(19-carboxynonadecanoylamino)butanoyl]amino]ethoxy]ethoxy]acetyl]-[Arg17,Pro21,Pro27,Glu35]-h-amylin (peptide)
peptide: K([AEEA-γGlu-C20 diacid])CNTATCATQRLANFLRHSSPNFGAIPSSTNVGSETY-NH2
modifications: disulfide 2-7; N-terminus assumed
SMILES: CC[C@H](C)[C@H](NC(=O)[C@H](C)NC(=O)CNC(=O)[C@H](Cc1ccccc1)NC(=O)[C@H](CC(N)=O)NC(=O)[C@@H]1CCCN1C(=O)[C@H](CO)NC(=O)[C@H](CO)NC(=O)[C@H](Cc1c[nH]cn1)NC(=O)[C@H](CCCNC(=N)N)NC(=O)[C@H](CC(C)C)NC(=O)[C@H](Cc1ccccc1)NC(=O)[C@H](CC(N)=O)NC(=O)[C@H](C)NC(=O)[C@H](CC(C)C)NC(=O)[C@H](CCCNC(=N)N)NC(=O)[C@H](CCC(N)=O)NC(=O)[C@@H](NC(=O)[C@H](C)NC(=O)[C@@H]1CSSC[C@H](NC(=O)[C@@H](N)CCCCNC(=O)COCCOCCNC(=O)CC[C@H](NC(=O)CCCCCCCCCCCCCCCCCCC(=O)O)C(=O)O)C(=O)N[C@@H](CC(N)=O)C(=O)N[C@@H]([C@@H](C)O)C(=O)N[C@@H](C)C(=O)N[C@@H]([C@@H](C)O)C(=O)N1)[C@@H](C)O)C(=O)N1CCC[C@H]1C(=O)N[C@@H](CO)C(=O)N[C@@H](CO)C(=O)N[C@H](C(=O)N[C@@H](CC(N)=O)C(=O)N[C@H](C(=O)NCC(=O)N[C@@H](CO)C(=O)N[C@@H](CCC(=O)O)C(=O)N[C@H](C(=O)N[C@@H](Cc1ccc(O)cc1)C(N)=O)[C@@H](C)O)C(C)C)[C@@H](C)O
notes: also called compound 26
B2: N^ε1-[2-[2-[2-[[(4S)-4-carboxy-4-(19-carboxynonadecanoylamino)butanoyl]amino]ethoxy]ethoxy]acetyl]-[Arg17,Pro21,Pro27,Pro34,His35]-h-amylin (peptide)
peptide: K([AEEA-γGlu-C20 diacid])CNTATCATQRLANFLRHSSPNFGAIPSSTNVGPHTY-NH2
modifications: disulfide 2-7; N-terminus assumed
SMILES: CC[C@H](C)[C@H](NC(=O)[C@H](C)NC(=O)CNC(=O)[C@H](Cc1ccccc1)NC(=O)[C@H](CC(N)=O)NC(=O)[C@@H]1CCCN1C(=O)[C@H](CO)NC(=O)[C@H](CO)NC(=O)[C@H](Cc1c[nH]cn1)NC(=O)[C@H](CCCNC(=N)N)NC(=O)[C@H](CC(C)C)NC(=O)[C@H](Cc1ccccc1)NC(=O)[C@H](CC(N)=O)NC(=O)[C@H](C)NC(=O)[C@H](CC(C)C)NC(=O)[C@H](CCCNC(=N)N)NC(=O)[C@H](CCC(N)=O)NC(=O)[C@@H](NC(=O)[C@H](C)NC(=O)[C@@H]1CSSC[C@H](NC(=O)[C@@H](N)CCCCNC(=O)COCCOCCNC(=O)CC[C@H](NC(=O)CCCCCCCCCCCCCCCCCCC(=O)O)C(=O)O)C(=O)N[C@@H](CC(N)=O)C(=O)N[C@@H]([C@@H](C)O)C(=O)N[C@@H](C)C(=O)N[C@@H]([C@@H](C)O)C(=O)N1)[C@@H](C)O)C(=O)N1CCC[C@H]1C(=O)N[C@@H](CO)C(=O)N[C@@H](CO)C(=O)N[C@H](C(=O)N[C@@H](CC(N)=O)C(=O)N[C@H](C(=O)NCC(=O)N1CCC[C@H]1C(=O)N[C@@H](Cc1c[nH]cn1)C(=O)N[C@H](C(=O)N[C@@H](Cc1ccc(O)cc1)C(N)=O)[C@@H](C)O)C(C)C)[C@@H](C)O
notes: also called compound 58
B3: N^ε1-[(4S)-4-carboxy-4-(19-carboxynonadecanoylamino)butanoyl]-[Arg17,Pro21,Pro27,His35]-h-amylin (peptide)
peptide: K([γGlu-C20 diacid])CNTATCATQRLANFLRHSSPNFGAIPSSTNVGSHTY-NH2
modifications: disulfide 2-7; N-terminus assumed
SMILES: CC[C@H](C)[C@H](NC(=O)[C@H](C)NC(=O)CNC(=O)[C@H](Cc1ccccc1)NC(=O)[C@H](CC(N)=O)NC(=O)[C@@H]1CCCN1C(=O)[C@H](CO)NC(=O)[C@H](CO)NC(=O)[C@H](Cc1c[nH]cn1)NC(=O)[C@H](CCCNC(=N)N)NC(=O)[C@H](CC(C)C)NC(=O)[C@H](Cc1ccccc1)NC(=O)[C@H](CC(N)=O)NC(=O)[C@H](C)NC(=O)[C@H](CC(C)C)NC(=O)[C@H](CCCNC(=N)N)NC(=O)[C@H](CCC(N)=O)NC(=O)[C@@H](NC(=O)[C@H](C)NC(=O)[C@@H]1CSSC[C@H](NC(=O)[C@@H](N)CCCCNC(=O)CC[C@H](NC(=O)CCCCCCCCCCCCCCCCCCC(=O)O)C(=O)O)C(=O)N[C@@H](CC(N)=O)C(=O)N[C@@H]([C@@H](C)O)C(=O)N[C@@H](C)C(=O)N[C@@H]([C@@H](C)O)C(=O)N1)[C@@H](C)O)C(=O)N1CCC[C@H]1C(=O)N[C@@H](CO)C(=O)N[C@@H](CO)C(=O)N[C@H](C(=O)N[C@@H](CC(N)=O)C(=O)N[C@H](C(=O)NCC(=O)N[C@@H](CO)C(=O)N[C@@H](Cc1c[nH]cn1)C(=O)N[C@H](C(=O)N[C@@H](Cc1ccc(O)cc1)C(N)=O)[C@@H](C)O)C(C)C)[C@@H](C)O
notes: also called compound 60
B4: N^ε1-[(4S)-4-carboxy-4-(19-carboxynonadecanoylamino)butanoyl]-[Arg17,Pro21,Pro27,Glu35]-h-amylin (peptide)
peptide: K([γGlu-C20 diacid])CNTATCATQRLANFLRHSSPNFGAIPSSTNVGSETY-NH2
modifications: disulfide 2-7; N-terminus assumed
SMILES: CC[C@H](C)[C@H](NC(=O)[C@H](C)NC(=O)CNC(=O)[C@H](Cc1ccccc1)NC(=O)[C@H](CC(N)=O)NC(=O)[C@@H]1CCCN1C(=O)[C@H](CO)NC(=O)[C@H](CO)NC(=O)[C@H](Cc1c[nH]cn1)NC(=O)[C@H](CCCNC(=N)N)NC(=O)[C@H](CC(C)C)NC(=O)[C@H](Cc1ccccc1)NC(=O)[C@H](CC(N)=O)NC(=O)[C@H](C)NC(=O)[C@H](CC(C)C)NC(=O)[C@H](CCCNC(=N)N)NC(=O)[C@H](CCC(N)=O)NC(=O)[C@@H](NC(=O)[C@H](C)NC(=O)[C@@H]1CSSC[C@H](NC(=O)[C@@H](N)CCCCNC(=O)CC[C@H](NC(=O)CCCCCCCCCCCCCCCCCCC(=O)O)C(=O)O)C(=O)N[C@@H](CC(N)=O)C(=O)N[C@@H]([C@@H](C)O)C(=O)N[C@@H](C)C(=O)N[C@@H]([C@@H](C)O)C(=O)N1)[C@@H](C)O)C(=O)N1CCC[C@H]1C(=O)N[C@@H](CO)C(=O)N[C@@H](CO)C(=O)N[C@H](C(=O)N[C@@H](CC(N)=O)C(=O)N[C@H](C(=O)NCC(=O)N[C@@H](CO)C(=O)N[C@@H](CCC(=O)O)C(=O)N[C@H](C(=O)N[C@@H](Cc1ccc(O)cc1)C(N)=O)[C@@H](C)O)C(C)C)[C@@H](C)O
notes: also called compound 27
B5: N^ε1-[2-[2-[2-[[(4S)-4-carboxy-4-(19-carboxynonadecanoylamino)butanoyl]amino]ethoxy]ethoxy]acetyl]-[Arg17,Pro21,Pro27,Pro31,His35]-h-amylin (peptide)
peptide: K([AEEA-γGlu-C20 diacid])CNTATCATQRLANFLRHSSPNFGAIPSSTPVGSHTY-NH2
modifications: disulfide 2-7; N-terminus assumed
SMILES: CC[C@H](C)[C@H](NC(=O)[C@H](C)NC(=O)CNC(=O)[C@H](Cc1ccccc1)NC(=O)[C@H](CC(N)=O)NC(=O)[C@@H]1CCCN1C(=O)[C@H](CO)NC(=O)[C@H](CO)NC(=O)[C@H](Cc1c[nH]cn1)NC(=O)[C@H](CCCNC(=N)N)NC(=O)[C@H](CC(C)C)NC(=O)[C@H](Cc1ccccc1)NC(=O)[C@H](CC(N)=O)NC(=O)[C@H](C)NC(=O)[C@H](CC(C)C)NC(=O)[C@H](CCCNC(=N)N)NC(=O)[C@H](CCC(N)=O)NC(=O)[C@@H](NC(=O)[C@H](C)NC(=O)[C@@H]1CSSC[C@H](NC(=O)[C@@H](N)CCCCNC(=O)COCCOCCNC(=O)CC[C@H](NC(=O)CCCCCCCCCCCCCCCCCCC(=O)O)C(=O)O)C(=O)N[C@@H](CC(N)=O)C(=O)N[C@@H]([C@@H](C)O)C(=O)N[C@@H](C)C(=O)N[C@@H]([C@@H](C)O)C(=O)N1)[C@@H](C)O)C(=O)N1CCC[C@H]1C(=O)N[C@@H](CO)C(=O)N[C@@H](CO)C(=O)N[C@H](C(=O)N1CCC[C@H]1C(=O)N[C@H](C(=O)NCC(=O)N[C@@H](CO)C(=O)N[C@@H](Cc1c[nH]cn1)C(=O)N[C@H](C(=O)N[C@@H](Cc1ccc(O)cc1)C(N)=O)[C@@H](C)O)C(C)C)[C@@H](C)O
notes: also called compound 57

Assays:
[1] = target: T1, human amylin receptor (amylin 3(a) …); test: SPA competition binding, displacement of 125I-rat amylin, membranes of BHK amylin 3(a)/CRE-luc cells
Method: The binding assay was performed using scintillation proximity assay (SPA) beads (RPNQ0001) from PerkinElmer and cell membranes from the Amylin 3(a)/CRE-luc cells (as described in Assay (II)) were used. Membranes were prepared in the following way; the cells were rinsed with PBS and incubated with Versene for approximately 5 min before harvesting. The cells were flushed with PBS and the cell-suspension was centrifuged for 5 min at 1000 rpm. Cells were homogenized (ultrathurrax) in a buffer containing 20 mM Na-HEPES and 10 mM EDTA (pH 7.4) and centrifuged at 20.000 rpm for 15 min. The resulting pellet was resuspended, homogenized and centrifuged (20.000 rpm, 15 min) in a buffer containing 20 mM Na-HEPES and 0.1 mM EDTA (pH 7.4, buffer 2). The resulting pellet was resuspended in buffer 2 and protein concentration was measured (BCA protein Assay, Pierce). The homogenate was kept cold during the whole procedure. The membranes were kept at −80° C. until use. The assay was performed in a 384 well Optiplate (PerkinElmer) in a total volume of 40 ul. Membranes were mixed with SPA beads. Final concentration of membranes 35 ng/μL final and SPA beads was 0.05 mg/well. Test-compounds were dissolved in DMSO and further diluted in assay buffer (50 mM Hepes, pH 7.4, 1 mM CaCl2, 5 mM MgCl₂, 0.1% OA and 0.02% Tween20). […] The final mixture was incubated with shaking at 400 rpm for 120 min at 25° C. prior to centrifugation (1500 rpm, 10 min). Samples were analyzed on TopCounter™ (Packard). The IC₅₀ was calculated using (one site binding competition analysis) GraphPad Prism5 as a measure of receptor affinity.

[2] = target: T1, human amylin receptor (amylin 3(a) …); test: cell-based or functional assay
[3] = target: T2, human calcitonin receptor; test: cell-based or functional assay

Binder	IC50 [1] [nM]	Ratio hCT/hAmylin funct. [2]	hAmylin-R funct. EC50 (pM) [2] [pM]	hCTR funct. EC50 (pM) [3] [pM]
B1	0.532	29.9	212	6340
B2	0.088	21.9	47	1030
B3	0.695	15.3	351	5360
B4	0.837	22.6	133	3000
B5	0.115	35	89	3120
